Like-named read-outs stand apart in the source and are kept apart here.
T1: fusion protein comprising the extracellular region of human GDF15 protein and human IgG1-FC (human, UniProt Q99988 197-308, limits assumed)
T1 construct: extracellular domain
T1 sequence (looked up): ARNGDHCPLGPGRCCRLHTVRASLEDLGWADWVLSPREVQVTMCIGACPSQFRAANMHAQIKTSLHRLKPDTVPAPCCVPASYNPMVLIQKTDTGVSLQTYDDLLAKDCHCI

T2: fusion protein comprising the extracellular region of monkey GDF15 protein and human IgG1-FC (monkey (cyno); human, UniProt G7PWZ3 197-308, limits assumed)
T2 construct: extracellular domain; also called cynoGDF15
T2 sequence (looked up): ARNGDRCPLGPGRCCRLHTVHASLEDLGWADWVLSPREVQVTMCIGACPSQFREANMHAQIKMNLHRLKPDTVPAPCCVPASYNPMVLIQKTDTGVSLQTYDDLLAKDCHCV

T3: GDF15-HIS (ACROBiosystems, CAT #: GD5-H5149) (human, UniProt Q99988 197-308)
T3 construct: Bought protein; also called GDF15 (ACROBiosystems, GD5-H5149); human GDF15; not shown: His tag
T3 sequence (looked up): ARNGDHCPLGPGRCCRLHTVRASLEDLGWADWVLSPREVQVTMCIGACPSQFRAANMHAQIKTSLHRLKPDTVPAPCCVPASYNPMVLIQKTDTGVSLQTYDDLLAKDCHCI

T4: GDF15-mFC protein (human; mouse, UniProt Q99988 197-308)
T4 construct: extracellular domain;domain: IgG2a-FC; also called GDF15-mFc fusion protein
T4 sequence (looked up): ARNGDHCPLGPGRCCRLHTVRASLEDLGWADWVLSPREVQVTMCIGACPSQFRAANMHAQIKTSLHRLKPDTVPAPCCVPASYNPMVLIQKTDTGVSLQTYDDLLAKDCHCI

T5: cynoGDF15-mFC (monkey (cyno); mouse, UniProt G7PWZ3 197-308)
T5 construct: also called monkey GDF15 (cynoGDF15)
T5 sequence (looked up): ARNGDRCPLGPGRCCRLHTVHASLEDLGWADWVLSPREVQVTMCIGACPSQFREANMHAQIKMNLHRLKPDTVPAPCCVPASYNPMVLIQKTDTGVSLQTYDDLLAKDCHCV


How the values were obtained:
[1] = molecular target: T1, fusion protein comprising the …; assay: ELISA, human GDF15-hIgG1 Fc coated, HRP anti-mouse IgG
Experimental: (§1) A fusion protein comprising the extracellular region of human GDF15 protein (Genbank accession number NM_004864.3) and human IgG1-FC (Genbank accession number CAC20454.1) was diluted to 1 ng/ml with coating solution, followed by adding to ELISA plate at 50 μl/well and incubating at 4° C. overnight. The solution in the wells was discarded and the plate was washed 3 times with washing solution, each time for 3-5 minutes, and dried by tapping. 200 μl of blocking solution was added to each well and incubated at 4° C. overnight. The plate was washed 3 times with washing solution, and the coated plate may be stored at −20° C. or 4° C. for future use.
(§2) The antibodies to be tested (purified antibodies from hybridoma, see Table 1), positive control antibody AV380-mIgG1 (its sequence is from Aveo Oncology; see SEQ ID NO. 1 and SEQ ID NO. 2 for its heavy chain and light chain variable regions, respectively; see SEQ ID NO. 3 and SEQ ID NO. 4 for its heavy chain and light chain constant regions, respectively) and blank control (PBS) were added to the wells. […] The wells were incubated at 37° C. for 1 hour, washed, and dried via tapping. Then the enzyme-labeled secondary antibody, horseradish peroxidase-labeled goat anti-mouse IgG (SIGMA, catalog number A9044-2 ml) was added to each well, at a dilution of 1:10000, 100 μl/well. The wells were incubated at 37° C. for 2 hours, washed, and dried via tapping. 100 μl of freshly prepared developing solution TMB was added to each well and incubated at 37° C. for 30 minutes.
(§3) 2 mol/L H₂SO₄ was added to terminate the reaction, and the OD values were read on enzyme-linked immunosorbent reader. The results were shown in Table 1-1, Table 1-2 and FIGS. 1-1 and 1-2.

[2] = molecular target: T1, fusion protein comprising the …; assay: as above; remark: listed apart in the source
Experimental: as §1, §2, §3

[3] = molecular target: T2, fusion protein comprising the …; assay: ELISA, monkey GDF15-hIgG1 Fc coated, HRP anti-mouse IgG
Experimental: as §2
(§4) The experiment was performed as detailed in Example 2, except that the fusion protein in Example 2 was replaced with a fusion protein comprising the extracellular region of monkey GDF15 protein (Genbank accession number EHH29815.1) and human IgG1-FC (Genbank accession number CAC20454.1). The results were shown in Table 2-1, Table 2-2 and FIGS. 2-1 and 2-2.

[4] = molecular target: T2, fusion protein comprising the …; assay: as above; remark: listed apart in the source
Experimental: as §2, §4

[5] = molecular target: T3, GDF15-HIS (ACROBiosystems, CAT #: …); assay: BLI (ForteBio Octet), antibody immobilised, GDF15 200-6.25 nM
[6] = molecular target: T4, GDF15-mFC protein; assay: blocking ELISA, GFRAL-hIgG1 Fc coated (competitor), GDF15-mFC 20 ng/well mixed with antibody
Experimental: as §1, with “of GFRAL” for “of human GDF15”, “number NM_207410.2)” for “number NM_004864.3)”, “[…]” for “1 ng/ml”, “dried via” for “dried by”, “well followed by incubating” for “well and incubated”
(§5) The antibodies to be tested, positive control antibody AV380-mIgG1 and blank control (PBS) were added to the wells. […] At the same time, GDF15-mFC protein (GDF15: Genbank accession number NM_004864.3; mFC: Genbank accession number AAH31470.1) was added at 20 ng/well and mixed with the antibodies to be tested. The wells were incubated at 37° C. for 1 hour, washed, and dried via tapping. Then the enzyme-labeled secondary antibody, horseradish peroxidase-labeled goat anti-mouse IgG (SIGMA, catalog number A9044-2 ml) was added to each well, at a dilution of 1:10000, 50-100 μl/well. The wells were incubated at 37° C. for 2 hours, washed, and dried via tapping. 100 μl of freshly prepared developing solution TMB was added to each well and incubated at 37° C. for 30 minutes. 2 mol/L H₂SO₄ was added to terminate the reaction, and the OD value was obtained on an enzyme-linked immunosorbent reader.

[7] = molecular target: T4, GDF15-mFC protein; assay: as above; remark: listed apart in the source
Experimental: as §1, with “of GFRAL” for “of human GDF15”, “number NM_207410.2)” for “number NM_004864.3)”, “[…]” for “1 ng/ml”, “dried via” for “dried by”, “well followed by incubating” for “well and incubated”
as §5

[8] = molecular target: T5, cynoGDF15-mFC; assay: ELISA, cynoGDF15-mFC coated
Experimental: The experiment was performed as detailed in Example 2, except that the coating protein was cynoGDF15-mFC (GDF15: Genbank accession number EHH29815.1; mFC: Genbank accession number AAH31470.1), and the antibodies to be tested (the humanized antibodies), negative control antibody (hIgG1), and positive control antibodies Ponsegromab and AV380-hIgG1 were added to each well of the coated plate.

Binder | EC50 [1] | EC50 [2] | EC50 [3] | EC50 [4] | Kd [5] | koff [5] | kon [5] | IC50 [6] | IC50 [7] | EC50 [8] | OD450.Max [8]
AV380-mIgG1 (antibody, also called positive control antibody AV380-mIgG1) heavy: EVLLQQSGPELVKPGASVKIPCKASGYTFTDYNMDWVKQSHGKSLEWIGQINPNNGGIFFNQKFKGKATLTVDKSSNTAFMEVRSLTSEDTAVYYCAREAITTVGAMDYWGQGTSVTVSSAKTTPPSVYPLAPGSAAQTNSMVTLGCLVKGYFPEPVTVTWNSGSLSSGVHTFPAVLQSDLYTLSSSVTVPSSTWPSETVTCNVAHPASSTKVDKKIVPRDCGCKPCICTVPEVSSVFIFPPKPKDVLTITLTPKVTCVVVDISKDDPEVQFSWFVDDVEVHTAQTQPREEQFNSTFRSVSELPIMHQDWLNGKEFKCRVNSAAFPAPIEKTISKTKGRPKAPQVYTIPPPKEQMAKDKVSLTCMITDFFPEDITVEWQWNGQPAENYKNTQPIMDTDGSYFVYSKLNVQKSNWEAGNTFTCSVLHEGLHNHHTEKSLSHSPGK light: DIQMTQSPASLSASVGETVTITCRTSENLHNYLAWYQQKQGKSPQLLVYDAKTLADGVPSRFSGSGSGTQYSLKINSLQPEDFGSYYCQHFWSSPYTFGGGTKLEIKRADAAPTVSIFPPSSEQLTSGGASVVCFLNNFYPKDINVKWKIDGSERQNGVLNSWTDQDSKDSTYSMSSTLTLTKDEYERHNSYTCEATHKTSTSPIVKSFNRNEC | 0.0313 µg/mL | 0.0296 µg/mL | 0.0146 µg/mL | 0.0258 µg/mL | 0.097 nM | 0.000117 s⁻¹ | 1.2e+06 M⁻¹ s⁻¹ | 0.198 µg/mL | 0.14 µg/mL | – | –
A1 (murine anti-53E5) (antibody, V domains shown, Purified murine hybridoma antibody) VH: QVQLKESGPGILQPSQTLSLTCSFSGFSLSTSGMGVGWIRQPSGKGLEWLAHILWDDVKRYNPALKSRLTISKDSSNSQIFLKIASVDTADTATYYCVQMAWDWFAYWGQGTLVTVSA VL: DIVMTQAQKFMSTSVEDRVSVTCKASQNVDTNVAWYQQKPGQSPKALIYSASYRSSGVPDRFTGSGSGTDFTLTISNVQSEDLAEYFCQQYHSYPTFGGGTKLEIK | 0.0455 µg/mL | – | 0.0454 µg/mL | – | 0.085 nM | 0.000194 s⁻¹ | 2.29e+06 M⁻¹ s⁻¹ | 0.186 µg/mL | – | – | –
A4 (murine anti-2A2) (antibody, V domains shown, Purified murine hybridoma antibody) VH: QVTLKESGPGILQPSQTLSLTCSFSGFSLTTSGMGVDWIRQSSGKGLEWLAHIYWDDDKRYNPSLKSRLTISKDTSSNQVFLKITSVDTADTATYYCARRAWDAMDYWGQGTSFTVSS VL: DIVMTQAQKFMSTSVGDRVSVTCKARQNVGTNVAWYQQKPGQSPKALIYSASYRYSGVPDRFTGSGSGTDFTLTISNVQSEDLAEYFCQQYNSYPYTFGGGTKLEIK | – | 0.046 µg/mL | – | 0.0827 µg/mL | 0.146 nM | 0.000214 s⁻¹ | 1.47e+06 M⁻¹ s⁻¹ | – | 0.0898 µg/mL | – | –

Results, then the binder that gave them:

EC50 [1] | EC50 [2] | EC50 [3] | EC50 [4] | Kd [5] | koff [5] | kon [5] | IC50 [6] | IC50 [7] | EC50 [8] | OD450.Max [8] | Binder
0.0378 µg/mL | – | 0.0677 µg/mL | – | 0.14 nM | 0.000318 s⁻¹ | 2.28e+06 M⁻¹ s⁻¹ | 0.205 µg/mL | – | – | – | A2 (murine anti-53A8) (antibody, V domains shown, Purified murine hybridoma antibody; also called murine antibody 53A8) VH: QVQLKESGPGILQPSQTLSLTCSFSGFSLSTSGMGVGWIRQPSGKGLEWLAHIRWDDVKRYNPALKSRLTISKDTSSSQIFLKIASVDTADTATYYCAQMAWDWFAYWGQGTLVTVSA VL: DIVMTQAQKFMSTSVGDRVSVTCKASQNVDTDVAWYQQKPGQSPKALIYSASYRYSGVPDRFTGSGSGTDFTLTITNVQSEDLAEYFCHQYNSYPTFGGGTKLEIK
– | – | – | – | – | – | – | – | – | 0.0697 µg/mL | 1.07 OD450 | Ponsegromab (antibody, V domains shown) VH: QVQLVQSGAEVKKPGSSVKVSCKASGYTFSSYNIDWVRQAPGQGLEWMGGINPIFGTAFYNQKFQGRVTITADESTSTAYMELSSLRSEDTAVYYCAREAITTVGAMDHWGQGTLVTVSS VL: EIVLTQSPATLSLSPGERATLSCRTSQSVHNYLAWYQQKPGQAPRLLIYDASTRADGIPARFSGSGSGTDFTLTISSLEPEDFAVYYCQQFWSWPWTFGQGTKVEIKR
0.0602 µg/mL | – | 0.0555 µg/mL | – | 0.0972 nM | 0.000217 s⁻¹ | 2.24e+06 M⁻¹ s⁻¹ | 0.213 µg/mL | – | – | – | A6 (murine anti-53D10) (antibody, V domains shown, Purified murine hybridoma antibody) VH: QVTLKESGPGIVQPSQPFRLTCTFSGFSLSTSGIGITWIRQPSGKGLEWLATIWWDDDNRYNPSLKSRLTVSKDTSNNQAFLNIITVETADTAIYYCVQSAWDWFAYWGQGTLVTVSA VL: DIVMTQSQKFMSTSVGDRVSVTCKASQNVGTNVAWYQQKSGQSPKALIYSASYRNSGVPDRFTGSGSGTDFTLTISNVESEDLAEYFCQQYNSHPVTFGGGTKLEIK
– | 0.109 µg/mL | – | 0.157 µg/mL | 0.0895 nM | 7.2e-05 s⁻¹ | 805000 M⁻¹ s⁻¹ | – | 0.0916 µg/mL | – | – | A3 (murine anti-34G9) (antibody, V domains shown, Purified murine hybridoma antibody) VH: QVQLKESGPGILQPSQTLSLTCSFSGFSLNTAGMTVGWIRQPSGKGLEWLAHIWWNDDKYYNPALKSRLTISKDTSNNQIFLEIASVVTADTATYYCTRIATMNYAMDYWGQGTSVTVSS VL: DIVMTQAPASLAVSLGQRATISCRASQSVSTSSFSYMHWYQQKPGQPPKLLIKYASNLESGVPARFSGSGSGTDFTLNIHPVEEEDTATYYCQHSWEIPYTFGGGTKLEIK
0.0556 µg/mL | – | 0.077 µg/mL | – | 0.162 nM | 0.000328 s⁻¹ | 2.02e+06 M⁻¹ s⁻¹ | 0.232 µg/mL | – | – | – | A5 (murine anti-50G3) (antibody, V domains shown, Purified murine hybridoma antibody) VH: QVTLKESGPGILKPSQTLSLTCSFSGFSLSTSGMGVGWIRQPSGKGLEWLAHIWWNDDKYYNPSLKSHLTISKDTSRNQVFLMITSVDTADTATYYCARGAYDFFDYWGQGTTLTVSS VL: DIVMTQAQNFMSTSVGDRVSVTCKASQNVDTNVAWYQQKPGQSPKALIYSASYRYSGVPDRFTGSGSGTDFTLTISNVQSDDLADYFCQQYNTYPYTFGGGTKLEIK

— patent publication US20250092124A1 (YUNNAN BAIYAO GROUP, published 2025)
